Columns and labels:
[1] = biological target: T1, mouse IL-11Rα on transfected cells (mouse, UniProt P70225 24-424); test: binding to transfected cells
T1 construct: also called mIL-11Rα
T1 sequence: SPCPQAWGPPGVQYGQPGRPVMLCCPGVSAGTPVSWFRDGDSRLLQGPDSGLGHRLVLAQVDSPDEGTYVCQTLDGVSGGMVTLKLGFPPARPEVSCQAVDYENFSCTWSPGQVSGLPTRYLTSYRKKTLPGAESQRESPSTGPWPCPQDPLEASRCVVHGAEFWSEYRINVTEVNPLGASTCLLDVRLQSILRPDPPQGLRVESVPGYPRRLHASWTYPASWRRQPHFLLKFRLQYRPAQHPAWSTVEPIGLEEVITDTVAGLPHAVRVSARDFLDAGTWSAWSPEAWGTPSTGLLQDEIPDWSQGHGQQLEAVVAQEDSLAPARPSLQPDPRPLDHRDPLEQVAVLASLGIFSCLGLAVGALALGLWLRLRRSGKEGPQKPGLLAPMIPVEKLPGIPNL

[2] = biological target: T2, polypeptide of SEQ ID NO: 86 (human IL-11Rα 23-110 and mouse IL-11Rα 111-367, 8×HIS tag) (human and mouse (chimera), UniProt Q64385 23-367 (mouse entry)); test: Biacore, antibody captured; N/B: no or ablated binding
T2 chain: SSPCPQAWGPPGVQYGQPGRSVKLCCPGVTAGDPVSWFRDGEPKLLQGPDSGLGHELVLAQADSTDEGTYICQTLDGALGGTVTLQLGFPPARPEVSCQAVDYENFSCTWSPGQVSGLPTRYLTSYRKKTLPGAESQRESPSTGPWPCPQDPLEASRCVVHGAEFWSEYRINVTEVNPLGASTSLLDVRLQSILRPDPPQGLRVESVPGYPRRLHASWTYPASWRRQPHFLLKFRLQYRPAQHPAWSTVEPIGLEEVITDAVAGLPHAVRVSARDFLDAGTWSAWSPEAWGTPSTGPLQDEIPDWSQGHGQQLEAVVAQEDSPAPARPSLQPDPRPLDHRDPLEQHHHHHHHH
Experimental: (§1) Various soluble forms of IL-11R comprising regions of hIL-11R and mIL-11R were produced and comprise sequences as set forth in SEQ ID NOs: 3 and 86-90 and the binding of antibodies 8E2, 8D10 and 8E4 to those polypeptides was determined using Western blotting or Biacore analysis.
(§2) For Biacore analysis, anti-human was IgG immobilized on the sensor surface at ˜10,000-12,000 RU and each antibody was captured at between 0.2 μg/ml and 0.5 μg/ml every cycle for 120 seconds. IL-11 receptors were injected over captured antibodies at varying concentrations, ranging from 1 μM down to 2.5 nM, including injections of buffer blanks. Association was monitored for 3-5 minutes, dissociation was monitored for 3-10 minutes. Approximate affinities were determined by fitting binding curves of each interaction to a 1:1 Kinetic Model.

[3] = biological target: T3, polypeptide of SEQ ID NO: 89 (mouse IL-11Rα 24-215 and human IL-11Rα 216-363, 8×HIS tag) (mouse and human (chimera), UniProt P70225 24-363); test: as above
T3 chain: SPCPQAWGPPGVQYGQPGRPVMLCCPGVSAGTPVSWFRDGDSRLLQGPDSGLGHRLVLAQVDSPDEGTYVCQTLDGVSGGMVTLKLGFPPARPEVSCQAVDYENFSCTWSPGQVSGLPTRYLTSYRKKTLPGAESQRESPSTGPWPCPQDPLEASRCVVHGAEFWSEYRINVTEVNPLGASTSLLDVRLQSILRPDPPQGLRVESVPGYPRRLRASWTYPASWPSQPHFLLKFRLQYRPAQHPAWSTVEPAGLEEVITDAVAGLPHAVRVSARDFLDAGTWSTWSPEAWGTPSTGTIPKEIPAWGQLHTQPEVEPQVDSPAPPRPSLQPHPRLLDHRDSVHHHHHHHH
Experimental: as §1, §2

[4] = biological target: T4, polypeptide of SEQ ID NO: 90 (amino acids 24 to 367 of mouse IL-11Rα, serine at position 206, 8×HIS tag) (mouse, UniProt Q64385 24-367); test: as above
T4 construct: also called soluble mIL-11Rα
T4 sequence: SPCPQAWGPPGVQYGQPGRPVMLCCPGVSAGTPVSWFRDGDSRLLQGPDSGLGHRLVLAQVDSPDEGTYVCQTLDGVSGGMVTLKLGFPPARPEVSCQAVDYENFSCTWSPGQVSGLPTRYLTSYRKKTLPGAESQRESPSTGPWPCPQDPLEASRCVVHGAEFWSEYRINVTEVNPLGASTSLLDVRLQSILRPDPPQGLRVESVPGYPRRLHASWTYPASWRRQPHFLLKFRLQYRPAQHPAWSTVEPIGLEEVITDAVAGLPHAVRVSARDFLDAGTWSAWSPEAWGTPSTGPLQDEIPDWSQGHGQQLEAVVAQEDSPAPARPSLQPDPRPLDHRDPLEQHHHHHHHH
Experimental: as §1, §2

binding result [1]: no binding
binding result [2]: no binding
binding result [3]: no binding
binding result [4]: no binding
B1: antibody 8D10 (antibody, human IgG4 S228P, kappa, V domains shown)
VH: EVQLLESGGGLVQPGGSLRLSCAASGFTFSRYMMGWVRQAPGKGLEWVSSIVPSGGITIYADSVKGRFTISRDNSKNTLYLQMNSLRAEDTAVYYCARDHMGIVATDWGQGTLVTVSS
VL: DIQMTQSPSSLSASVGDRVTITCQASQDITNYLNWYLHKPGKAPKLLIYDASNLQTGVPSRFSGSGSGTDFTFTITSLQPEDFGTYYCQQYDTLHPSFGPGTTVDIKR

Source: patent US20160031999A1 (CSL, published 2016)
